One sequence from patent publication US20230235304 can be followed below.

Holding throughout (experiment): cell_activity
What all share (settings): PAM 5'-GCTG-3'; HEK293T; averaged over AAVS1, VEGFA, EMX1 targets

The subject of data set [1] is T1, CRISPR nuclease variant Q514G Q514G (synthetic construct).
T1 sequence: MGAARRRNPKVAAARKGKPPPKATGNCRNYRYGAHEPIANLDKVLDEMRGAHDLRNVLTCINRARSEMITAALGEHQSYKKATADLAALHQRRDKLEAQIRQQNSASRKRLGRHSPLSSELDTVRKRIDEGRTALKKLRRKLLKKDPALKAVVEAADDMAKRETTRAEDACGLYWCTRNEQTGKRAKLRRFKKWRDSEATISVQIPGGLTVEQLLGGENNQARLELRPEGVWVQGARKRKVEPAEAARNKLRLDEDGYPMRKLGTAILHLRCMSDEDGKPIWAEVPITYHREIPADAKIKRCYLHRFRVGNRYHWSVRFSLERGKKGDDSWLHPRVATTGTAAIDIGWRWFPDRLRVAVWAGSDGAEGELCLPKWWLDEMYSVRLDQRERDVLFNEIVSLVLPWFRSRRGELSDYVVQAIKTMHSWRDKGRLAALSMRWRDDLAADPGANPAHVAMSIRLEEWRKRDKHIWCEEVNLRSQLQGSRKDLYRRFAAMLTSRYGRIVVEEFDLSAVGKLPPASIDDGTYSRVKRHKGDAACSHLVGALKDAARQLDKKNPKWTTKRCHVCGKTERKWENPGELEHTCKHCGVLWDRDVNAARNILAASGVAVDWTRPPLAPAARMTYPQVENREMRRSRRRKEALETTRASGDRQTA

In data set [2] the test system is T2, CRISPR nuclease variant S78K,E198R,R354G S78K,E198R,R354G (synthetic construct).
T2 sequence: T1 sequence with S78K, E198R, R354G, G514Q

Data set [3] relates to T3, CRISPR nuclease variant L580G,L385G L580G,L385G (synthetic construct).
T3 sequence: T1 sequence with L385G, G514Q, L580G

The test system of data set [4] is T4, CRISPR nuclease variant I521R I521R (synthetic construct).
T4 sequence: T1 sequence with G514Q, I521R

Changes are numbered by the printed parent chain.

“GGUCCCAUCGGAACGGGUUGUGGUUCCGACGGAGGGAUACAUUGGUGGGG / GGAGGGATACATTGGTGGGG / CCCCACCAATGTATCCCTCC [AAVS1 crRNA (Table 5) ; AAVS1 target (Table 5)]”: the binding signal (fold indels vs WT) in data set [1] came out at 3.53; in data set [2], 4.14; in data set [3], 3.9; in data set [4], 3.57.
